Laboratory results: IntAct's records for PubMed 23085988

B1: Sorting nexin-8 (Homo sapiens), Q9Y5X2 (parent)
chain: MTGRAMDPLPAAAVGAAAEAEADEEADPPASDLPTPQAIEPQAIVQQVPAPSRMQMPQGNPLLLSHTLQELLARDTVQVELIPEKKGLFLKHVEYEVSSQRFKSSVYRRYNDFVVFQEMLLHKFPYRMVPALPPKRMLGADREFIEARRRALKRFVNLVARHPLFSEDVVLKLFLSFSGSDVQNKLKESAQCVGDEFLNCKLATRAKDFLPADIQAQFAISRELIRNIYNSFHKLRDRAERIASRAIDNAADLLIFGKELSAIGSDTTPLPSWAALNSSTWGSLKQALKGLSVEFALLADKAAQQGKQEENDVVEKLNLFLDLLQSYKDLCERHEKGVLHKHQRALHKYSLMKRQMMSATAQNREPESVEQLESRIVEQENAIQTMELRNYFSLYCLHQETQLIHVYLPLTSHILRAFVNSQIQGHKEMSKVWNDLRPKLSCLFAGPHSTLTPPCSPPEDGLCPH

Variants of: B1
Details: with snx1_human SNX1, Q13596
Sequence of snx1_human SNX1, Q13596 (Q13596 whole entry): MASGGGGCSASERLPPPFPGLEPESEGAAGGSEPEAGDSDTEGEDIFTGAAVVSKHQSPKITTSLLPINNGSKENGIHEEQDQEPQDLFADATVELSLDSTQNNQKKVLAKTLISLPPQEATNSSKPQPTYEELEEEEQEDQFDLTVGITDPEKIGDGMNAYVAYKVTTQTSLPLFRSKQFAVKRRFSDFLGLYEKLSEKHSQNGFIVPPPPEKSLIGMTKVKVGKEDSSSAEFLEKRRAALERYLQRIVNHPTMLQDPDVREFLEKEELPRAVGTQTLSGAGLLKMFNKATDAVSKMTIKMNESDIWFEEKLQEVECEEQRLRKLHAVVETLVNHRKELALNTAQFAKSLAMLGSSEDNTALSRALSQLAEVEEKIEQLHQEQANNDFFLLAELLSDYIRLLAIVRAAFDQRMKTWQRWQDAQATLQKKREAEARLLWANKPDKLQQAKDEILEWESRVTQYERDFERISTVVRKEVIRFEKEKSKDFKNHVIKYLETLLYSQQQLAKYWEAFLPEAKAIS

| effect of a mutation on the interaction | Variant |
| --- | --- |
| increasing interaction | E310I |
